Data reported in paper PMC11026450 (Scientific Reports, 2024).

Key:
PANC1 spheroids = assay: 3D-spheroid growth assay, PANC1; assay type: cell-based, human; settings: 3D floating PANC1 spheroids, 0.5 µM, treated day 0, 2, 4, 7, 9 over 10 days; vs vehicle [0.2% DMSO] and DRx-150 [10 µM]; n = 5
Protocol: PANC1 cells were seeded at 2 × 10^3 in wells of a round bottom Nunclon™ Sphera™ 96 well-plate with ultra-low attachment coating (Thermo; #174925), containing 200 μL DMEM (2% FBS, 2 mM L-glutamine, 100 U/I Pen-Strep). To encourage spheroid formation, PANC1 cells were centrifuged at 250 × g for 10 min at room temperature. PANC1 spheroids were then allowed to grow for 3 days at 37 °C, 5% CO2, humidified air. Spheroids were then treated with appropriate concentration of DRx-peptide/afatinib by first removing 100 μL of media from each well (careful not to disturb spheroid), followed by addition of 100 μL drug at 2× concentration. Cells were treated five times over a 10 day period (day 0, 2, 4, 7 and 9). Spheroids were imaged on day 0, 2, 4, 7 and 10 using a Nikon Eclipse TS2 microscope and spheroid area quantified using Image J software. Data represented as a fold-difference of relative day 0 spheroid measurement (i.e., day 0 normalised to 1).

[1] = target: T1, full-length human PDE8A1-MBP (human, UniProt O60658-1 1-829); assay: peptide or protein array; human c-RAF 20mer peptides SPOT-synthesised on cellulose membrane; far western approach: 0.1 μM PDE8A1-MBP overnight at 4 °C in 1x TBS, 5% glycerol, pH 7.4; detected with αMBP-HRP and ECL; MBP alone as negative control; signal normalised to the strongest binding peptide; settings: both partners purified
T1 construct: Phosphodiesterase 8A, isoform PDE8A1, human, full length; the tag was detected with an anti-MBP-HRP antibody (Abcam ab49923); also called human recombinant PDE8A1-MBP; source: recombinant
T1 sequence (O60658 whole entry, canonical isoform): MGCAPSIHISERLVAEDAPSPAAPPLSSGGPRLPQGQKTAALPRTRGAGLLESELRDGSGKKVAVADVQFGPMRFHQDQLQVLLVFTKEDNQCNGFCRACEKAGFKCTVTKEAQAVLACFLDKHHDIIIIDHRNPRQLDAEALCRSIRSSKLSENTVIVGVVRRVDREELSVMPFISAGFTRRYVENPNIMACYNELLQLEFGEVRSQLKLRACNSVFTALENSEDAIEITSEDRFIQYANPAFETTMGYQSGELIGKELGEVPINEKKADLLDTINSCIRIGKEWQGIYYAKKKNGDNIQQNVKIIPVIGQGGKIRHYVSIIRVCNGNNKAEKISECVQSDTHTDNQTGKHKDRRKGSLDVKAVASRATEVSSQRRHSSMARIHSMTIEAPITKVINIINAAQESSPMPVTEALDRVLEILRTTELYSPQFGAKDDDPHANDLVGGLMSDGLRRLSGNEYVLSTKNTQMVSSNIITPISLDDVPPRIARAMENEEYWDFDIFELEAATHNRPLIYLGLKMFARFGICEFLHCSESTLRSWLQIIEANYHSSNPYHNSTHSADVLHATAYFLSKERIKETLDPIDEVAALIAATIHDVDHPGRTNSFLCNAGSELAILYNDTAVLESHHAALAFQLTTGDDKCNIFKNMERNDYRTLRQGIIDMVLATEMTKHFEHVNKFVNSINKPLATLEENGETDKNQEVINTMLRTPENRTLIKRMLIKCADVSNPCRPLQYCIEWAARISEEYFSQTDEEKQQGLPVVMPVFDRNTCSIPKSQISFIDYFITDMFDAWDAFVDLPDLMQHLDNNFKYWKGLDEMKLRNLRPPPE

| Molecule | relative spheroid area (fold-difference vs. Day 0) (PANC1 spheroids) | binding result [1] |
| --- | --- | --- |
| CN(C)C/C=C/C(=O)Nc1cc2c(Nc3ccc(F)c(Cl)c3)ncnc2cc1O[C@H]1CCOC1 [afatinib, afatinib dimaleate] | significantly attenuated | – |
| NTSSPSSEGSLSQRQRSTST (peptide, UniProt P04049 241-260, looked up, c-RAF, human, 20mer of the peptide array, residues N241–T260; source: synthetic peptide, SPOT synthesis on cellulose membrane) [human c-RAF peptide 49 (N241–T260)] | – | binds |
| MKRLVADCVKKVKEERPLFP (peptide, UniProt P04049 581-600, looked up, c-RAF, human, 20mer of the peptide array, residues M581–P600; source: synthetic peptide, SPOT synthesis on cellulose membrane) [human c-RAF peptide 117 (M581–P600)] | – | binds |
| HSLPKINRSASEPSLHRAAH (peptide, UniProt P04049 611-630, looked up, c-RAF, human, 20mer of the peptide array, residues H611–H630; source: synthetic peptide, SPOT synthesis on cellulose membrane) [human c-RAF peptide 123 (H611–H630)] | – | binds |
| FGYQRRASDDGKLTDPSKTS (peptide, UniProt P04049 36-55, looked up, c-RAF, human, 20mer of the peptide array, residues F36–S55; source: synthetic peptide, SPOT synthesis on cellulose membrane) [human c-RAF peptide 8 (F36–S55)] | – | binds |
